This is an account of results in patent US20230181719A1, “NGR CONJUGATES AND USES THEREOF” (OSPEDALE SAN RAFFAELE S.R.L., priority 2020, published 2023).

Like-named read-outs stand apart in the source and are kept apart here. Positions of bridges follow the written chain, without caps; N, C: chain ends. No end group written: not given here.

One data set deals with αvβ3 (Homo sapiens, UniProt P05106+P06756). Particulars: cited from earlier work.
The conditions of data set [1]: buffer; cited from earlier work.
The subject of another data set is RMA-T lymphoma. Format: in vivo, mice. On the procedure:
RMA-T tumor-bearing mice (6 per group) were treated 11 days after tumor implantation with 100 pg of S-NGR-hTNF (i.p.). Two hours later, the mice were injected (i.p.) with 50 µg of melphalan (generic preparation of melphalan, Tillomed).
B) Kaplan-Maier curves of vehicle, melphalan alone and in combination with S-NGR-hTNF.
C) Animal body weight change (mean ± SE, 6 mice per group). Arrows: pharmacological treatment.
Inventors have shown previously that low-dose murine S-NGR-TNF (100 pg) can enhance the antitumor activity of melphalan, an anticancer alkylating agent, in a murine lymphoma model (Corti et al., 2020). To assess whether S-NGR-hTNF can also synergize with melphalan, inventors performed similar experiments using the RMA-T lymphoma model. As expected, administration of melphalan (50 µg) in combination with S-NGR-hTNF (100 pg) induced stronger antitumor effects than melphalan alone (FIGS. 21A-B).

For data set [2], the system named is malignant pleural mesothelioma (MPM). Particulars: cited from earlier work.
Data set [3] deals with primary central nervous system lymphoma (PCNSL). Particulars: with R-CHOP; cited from earlier work.
The subject of another data set is WEHI-164 fibrosarcoma. The experiment in a line: Low-dose treatment in subcutaneous WEHI-164 fibrosarcoma murine model. Particulars: 25 or 50 pg, i.p. Format: in vivo. The procedure:
FIG. 14. […] Balb/c mice (6-7 weeks old, weighing 18-20 g) were injected, s.c., with 1.5×10^6 WEHI-164 cells in the left flank and treated 5 days after tumor implantation (i.p.) with 25 or 50 pg of murine NGR-TNF or S-NGR-TNF in 0.9% sodium chloride, containing 100 µg/ml endotoxin-free human serum albumin (arrows). A) Tumor volumes after treatment (mean±SE, 6 mice per group). B) Tumor weight at day 15 (cumulative data of the two groups treated with 25 and 50 pg of drugs). *, P<0.05, **P<0.01 by unpaired t test of the area under the curve for each tumor (GraphPad Prism software).
To assess whether the addition of the Ser residue to NGR-TNF might affect its anti-tumor activity at low dose, inventors then analyzed the therapeutic activity of NGR-TNF and S-NGR-TNF (25 or 50 pg, i.p.) using the subcutaneous WEHI-164 fibrosarcoma murine model.

A further data set deals with L-M cells. The experiment in a line: LM-cells cytolytic assay (MTT). Format: cell-based. Particulars: actinomycin D, 20 h, murine proteins. An excerpt:
FIG. 8. Biochemical and biological characterization of murine S-NGR-TNF and NGR-TNF. A) SDS-PAGE under reducing (βMe +) and non-reducing conditions (βMe -) of murine S-NGR-TNF, NGR-TNF and TNF. Arrows: bands corresponding to monomeric subunits (mon) and reducible dimers (dim). B) Representative mass spectra of murine NGR-TNF, TNF and S-NGR-TNF as determined by a Q Exactive HF mass spectrometer. Expected average masses are shown. C) Cytotoxic activity of TNF, NGR-TNF and S-NGR-TNF against L-M cells. L-M cells were incubated in DMEM medium supplemented with 2 mM glutamine, 100 U/ml penicillin, 100 µg/ml streptomycin, 0.25 µg/ml amphotericin-B, 10% fetal bovine serum, 2 µg/ml actinomycin D and TNF, NGR-TNF or S-NGR-TNF at the indicated doses (20 h at 37° C., 5% CO2). Cell viability was quantified by standard 3-(4,5-dimethylthiazol-2-yl)-2,5-diphenyltetrazolium bromide (MTT) assay. D) Binding of TNF, NGR-TNF and S-NGR-TNF to sTNF-R1 (Etanercept). Microtiterplates were precoated with or without the indicated amount of sTNF-R1 (for 16 h), washed with PBS, blocked with PBS containing 3% milk, 1% BSA (binding buffer, 1 h) and incubated with the indicated amounts of TNF, NGR-TNF or S-NGR-TNF diluted in binding buffer (for 1.5 h). The binding of each protein to sTNF-R1 was then detected using a polyclonal anti-murine TNF (IP301, 5 µg/ml in binding buffer, 1 h) followed by a polyclonal goat anti-rabbit antibody conjugated with horseradish peroxidase (1:1000 in binding buffer, 1 h) and o-phenylendiammine as chromogenic substrate.
To assess whether the addition of a serine residue to NGR-TNF affects its capability to recognize the TNF receptors and, consequently, its biological activity, inventors then analyzed the cytotoxic activity of TNF, NGR-TNF and S-NGR-TNF in the LM-cells cytolytic assay.

Data set [4] relates to endothelial EA.hy926 cells. Briefly: EA.hy926 endothelial cell adhesion assay on protein-coated microtiterplates. Format: cell-based. Particulars: plates coated in PBS, no forced deamidation. On the procedure: FIG. 12. […] A) Adhesion of endothelial EA.hy926 cells to 96-wells microtiterplates coated with different amounts of murine TNF, NGR-TNF and S-NGR-TNF in 150 mM sodium chloride, 50 mM sodium phosphate buffer, pH 7.4 (PBS) (16 h). Each well was blocked with 2% BSA in PBS containing calcium chloride and magnesium chloride (DPBS, 30 min), seeded with 40.000 endothelial EA.hy926 cells in DPBS supplemented with 0.1% BSA (DPBS-B), and left to incubate for 2 h at 37° C., 5% CO2. After washing with DMEM-B, adherent cells were stained with crystal violet and quantified by spectrophotometric measurements at 570 nm. B) Microtiterplates pre-coated with 1 µg/ml of murine NGR-TNF or S-NGR-TNF in PBS (for 16 h) were incubated 0.1 M ammonium bicarbonate buffer, pH 8.5 (Ambic) at 37° C. for the indicated time to promote NGR deamidation. EA.hy926 cell adhesion assay was then performed as described above.
This behavior likely reflects a further improvement in the CNGRCG (SEQ ID NO: 1) stability when fused to TNF.

For another data set, the system named is RMA lymphoma. The data set is classed as in vivo, mice. Particulars: 100 pg i.p., melphalan two hours later. The procedure:
FIG. 15. […] C57BL/6 mice (6-7 weeks old, weighing 18-20 g) were challenged with subcutaneous injection in the left flank of 7×10^4 RMA cells. Mice bearing RMA lymphomas (6 per group) were treated 10-11 days (after tumor implantation with 100 pg of murine NGR-TNF or S-NGR-TNF (i.p.). Two hours later, the mice were injected with the indicated dose of melphalan (i.p.). All proteins were diluted with 0.9% sodium chloride, containing 100 µg/ml endotoxin-free human albumin. Tumor growth was monitored daily by measuring the tumors with calipers. A-B) Tumor volume change of two independent experiments are shown (mean±SE). […] C) Tumor bearing-animals were treated at day 10 after tumor implantation as indicated above using the indicated dose of S-NGR-TNF and the generic preparation of melphalan (Melphalan-Tillomed, from Tillomed Italia). RMA tumor weight at day 20 are shown (mean±SE). *, P<0.05, **P<0.01 by unpaired t test analysis with the GraphPad Prism software.
Effect of melphalan alone or in combination with low-dose murine S-NGR-TNF on the body weight and tumor growth of RMA-T lymphoma-bearing mice. Six tumor-bearing mice were injected with the indicated doses of S-NGR-TNF (i.p) and, two hours later, with the generic preparation of melphalan (Melphalan-Tillomed) (i.p.).
Finally, to assess whether low-dose S-NGR-TNF can exert synergistic effects with chemotherapy, as previously observed for NGR-TNF, inventors performed in vivo experiments with S-NGR-TNF and NGR-TNF in combination with melphalan, a chemotherapeutic drug, using the murine RMA lymphoma model (FIG. 15).

[5] abbreviates: S-NGR-hTNF 100 pg in combination with melphalan 50 µg.

Chain of αvβ3 (P06756 31-889 limits assumed): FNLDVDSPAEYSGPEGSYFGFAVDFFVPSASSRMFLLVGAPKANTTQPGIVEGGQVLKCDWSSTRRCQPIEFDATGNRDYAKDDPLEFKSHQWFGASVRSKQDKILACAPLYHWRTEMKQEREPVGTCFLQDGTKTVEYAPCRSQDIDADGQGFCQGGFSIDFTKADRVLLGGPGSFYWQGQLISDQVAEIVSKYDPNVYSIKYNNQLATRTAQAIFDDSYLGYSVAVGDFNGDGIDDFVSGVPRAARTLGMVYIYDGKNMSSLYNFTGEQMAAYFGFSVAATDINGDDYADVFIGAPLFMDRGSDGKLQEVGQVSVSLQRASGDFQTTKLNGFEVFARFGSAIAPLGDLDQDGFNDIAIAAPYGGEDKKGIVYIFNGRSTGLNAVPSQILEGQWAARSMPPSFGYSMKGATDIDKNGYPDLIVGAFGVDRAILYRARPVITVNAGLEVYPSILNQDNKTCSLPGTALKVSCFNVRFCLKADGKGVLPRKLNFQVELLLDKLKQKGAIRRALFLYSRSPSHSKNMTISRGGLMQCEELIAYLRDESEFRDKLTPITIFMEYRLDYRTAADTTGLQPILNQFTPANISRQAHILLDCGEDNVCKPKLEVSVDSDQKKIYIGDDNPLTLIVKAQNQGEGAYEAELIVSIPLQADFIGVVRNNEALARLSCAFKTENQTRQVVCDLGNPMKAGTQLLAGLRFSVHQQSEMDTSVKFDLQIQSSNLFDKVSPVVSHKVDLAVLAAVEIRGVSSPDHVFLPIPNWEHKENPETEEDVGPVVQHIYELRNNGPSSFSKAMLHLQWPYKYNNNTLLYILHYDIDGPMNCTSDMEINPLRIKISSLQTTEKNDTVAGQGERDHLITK
Chain of αvβ3 (P06756 891-1048 partner limits assumed): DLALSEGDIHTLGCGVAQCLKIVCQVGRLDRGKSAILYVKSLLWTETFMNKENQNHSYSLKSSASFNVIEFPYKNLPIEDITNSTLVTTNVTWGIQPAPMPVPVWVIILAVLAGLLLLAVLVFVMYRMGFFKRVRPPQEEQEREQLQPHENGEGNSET
Chain of αvβ3 (P05106 27-788): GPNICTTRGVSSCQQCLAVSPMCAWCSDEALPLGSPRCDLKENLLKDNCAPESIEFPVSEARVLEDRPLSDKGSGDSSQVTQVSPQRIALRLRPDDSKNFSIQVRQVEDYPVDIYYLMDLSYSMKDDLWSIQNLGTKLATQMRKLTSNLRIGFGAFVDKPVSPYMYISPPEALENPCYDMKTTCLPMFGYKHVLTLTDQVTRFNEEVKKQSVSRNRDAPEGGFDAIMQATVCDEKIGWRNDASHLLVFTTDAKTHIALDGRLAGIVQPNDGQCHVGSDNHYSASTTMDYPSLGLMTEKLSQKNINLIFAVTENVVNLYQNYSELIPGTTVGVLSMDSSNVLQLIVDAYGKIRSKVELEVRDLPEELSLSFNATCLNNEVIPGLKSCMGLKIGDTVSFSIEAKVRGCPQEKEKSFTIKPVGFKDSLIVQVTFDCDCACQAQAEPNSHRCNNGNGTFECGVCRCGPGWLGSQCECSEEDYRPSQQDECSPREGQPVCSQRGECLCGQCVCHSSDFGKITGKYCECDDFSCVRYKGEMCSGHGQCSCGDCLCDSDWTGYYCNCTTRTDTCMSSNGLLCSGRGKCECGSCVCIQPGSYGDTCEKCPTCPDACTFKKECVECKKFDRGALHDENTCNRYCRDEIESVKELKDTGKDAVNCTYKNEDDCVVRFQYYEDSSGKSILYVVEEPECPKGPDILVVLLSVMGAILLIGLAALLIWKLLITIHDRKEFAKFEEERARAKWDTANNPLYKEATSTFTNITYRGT

Turning to “CisoDGRC (SEQ ID NO:41) (isoaspartate; disulfide cyclized; MOD_RES (1)..(1) Ciso or acetyl-Ciso or iso) [deamidation product of CNGRC]”, the “affinity for αvβ3 greater than αvβ5, αvβ6, αvβ8, and α5β1” value in the data set with αvβ3 is 10-100 fold.
With “CNGRC (SEQ ID NO:5) (disulfide 1-5 (inferred); listed as Homo sapiens)”, the deamidation half-life in data set [1] was 4 to 5 h.
`N[C@@H](Cc1ccc(N(CCCl)CCCl)cc1)C(=O)O` [melphalan, reference compound]: the median survival with RMA-T lymphoma (melphalan 50 µg alone) is given as ~28 days.
For the molecule “S-NGR-hTNF: Human SCNGRCG-TNF fusion protein expressed in E. coli (SEQ ID NO:27/28)”, in the data set on RMA-T lymphoma (setting [5]), the median survival stood at 36.5 days and the “toxicity of melphalan, judged from loss of animal weight” value was “without increasing its toxicity”.
Regarding “human NGR-TNF: CNGRCG fused to the human TNF sequence, tested in Phase II and III clinical studies”, in [2] (0.8 µg/m^2, 1 h infusion), the “disease control in previously treated patients” value was “about half”. Besides, the “duration of disease control” value in data set [2] (triweekly cohort) was 4.4 months; in data set [2] (weekly cohort), 9.1 months. The complete responses in data set [3] is given as 50%. For the same molecule, the responses in [3] is given as 75%.

B1: NGR-TNF: Murine CNGRCG-TNF fusion protein, conventional first-generation conjugate used as comparator (protein)
chain: CNGRCGLRSSSQNSSDKPVAHVVANHQVEEQLEWLSQRANALLANGMDLKDNQLVVPADGLYLVYSQVLFKGQGCPDYVLLTHTVSRFAISYQEKVNLLSAVKSPCPKDTPEGAELKPWYEPIYLGGVFQLEKGDQLSAEVNLPKYLDFAESGQVYFGVIAL
Regarding B1, in the data set on WEHI-164 fibrosarcoma, the toxicity entry was “No evidence of toxicity” and the tumor growth result is given as “delayed tumor growth to similar extent”. Besides, the EC50 cytotoxic activity entry in the data set with L-M cells is listed as “very similar”. Further, the “EA.hy926 cell adhesion to coated plates” value in data set [4] was “cell adhesion was observed”. The “efficacy of melphalan in combination” value in the data set with RMA lymphoma was “could enhance the efficacy of melphalan”.
